Source: patent publication US20200188479A1 (INTARCIA THERAPEUTICS, published 2020)
Ends that are not written are not given here.

B1: semaglutide (peptide)
peptide: HXEGTFTSDVSSYLEGQAAKEFIAWLVRGRG
modifications: Aib in position 8 (GLP-1 numbering); Lys carries N6-[N-(17-carboxy-1-oxoheptadecyl-L-c-glutamyl[2-(2-aminoethoxy)ethoxy]acetyl[2-(2-aminoethoxy)ethoxy]acetyl] residue (as printed in paragraph 217))

Target: fraction V human serum albumin (human, UniProt P02768 25-609)
Assay: cell-based or functional assay

Chain of fraction V human serum albumin (P02768 25-609 limits assumed): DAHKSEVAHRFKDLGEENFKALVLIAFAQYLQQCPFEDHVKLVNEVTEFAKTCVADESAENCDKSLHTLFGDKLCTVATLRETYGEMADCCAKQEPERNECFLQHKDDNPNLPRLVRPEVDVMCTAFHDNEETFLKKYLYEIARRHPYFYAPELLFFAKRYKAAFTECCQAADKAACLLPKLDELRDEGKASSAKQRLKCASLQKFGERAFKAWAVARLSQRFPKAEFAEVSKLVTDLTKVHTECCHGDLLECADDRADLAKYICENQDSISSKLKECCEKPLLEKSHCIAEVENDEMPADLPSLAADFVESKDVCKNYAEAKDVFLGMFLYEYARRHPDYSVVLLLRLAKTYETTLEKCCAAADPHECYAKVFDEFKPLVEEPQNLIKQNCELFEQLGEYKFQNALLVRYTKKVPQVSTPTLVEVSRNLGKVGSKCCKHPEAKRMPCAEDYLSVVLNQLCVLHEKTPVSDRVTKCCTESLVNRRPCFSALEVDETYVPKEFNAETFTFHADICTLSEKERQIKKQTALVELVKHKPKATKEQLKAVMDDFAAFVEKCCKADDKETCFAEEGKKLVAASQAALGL

Row | Binder | fold decrease in potency shift in 4% vs 0.1% albumin (cAMP accumulation in hGLP1R-expressing CHO-K1 cells) | reduction in potency in 4% vs 0.1% albumin, relative to the effect observed with GLP-1[7-36]NH2 | albumin-mediated change in potency for activation of GLP-1 receptors at 4% HSA versus 0.1% HSA | potency shift in 4% vs 0.1% albumin (cAMP accumulation in hGLP1R-expressing CHO-K1 cells)
1 | B1 | 19.9 fold | 36.8 fold |  | 
2 | HAEGTFTSDVSSYLEGQAAKEFIAWLVKGR-NH2 [human GLP-1[7-36]NH2] |  |  | 0.54 fold (×) | 1.8 fold
